From article PMC10987609, “ATR limits Rad18-mediated PCNA monoubiquitination to preserve replication fork and telomerase-independent telomere stability” (The EMBO Journal, 2024) come the findings set out here.

The target in the assay is T1, ubiquitinated SFB-tagged PCNA purified from HEK293T cells (human | , UniProt P12004 1-261; P0CG48 1-76, ubiquitinated with His-tagged ubiquitin; the paper places Rad18-mediated monoubiquitination at lysine 164).
T1 construct: PCNA, human, full-length cDNA; wild-type ubiquitin (Ub), conjugated to PCNA; the transfected plasmid is probably the N-terminal one; also called ubiquitinated SFB-PCNA; monoubiquitinated PCNA; source: HEK293T stably expressing His-tagged Ub, transfected with SFB-PCNA, treated with HU and ATRi; purified (cobalt resin under denaturing conditions, then streptavidin beads, biotin elution)
Put plainly: pull-down; GST-UBZ4 on glutathione-Sepharose resin incubated with ubiquitinated SFB-tagged PCNA purified from HEK293T cells; NETN buffer, 4 °C, 1 h. The settings on record: both partners purified.

B1: GST-SLX4-UBZ4-WT (domain or fragment, human, UniProt Q8IY92 292-361, looked up)
chain: GLFFCQICQKNLSAMNVTRREQHVNRCLDEAEKTLRPSVPQIPECPICGKPFLTLKSRTSHLKQCAVKME
notes: SLX4, human, fragment with the tandem UBZ4 domains, amino acids 292–361; also called GST-UBZ4; source: E. coli, purified (glutathione-Sepharose, used on beads)
Regarding B1, the binding result is recorded as “binds”.
